# Residue numbers refer to the chain shown, from its start. Names and notes keep the numbering of the source.
# T1: IL-10R2-Fc/His (UniProt Q08334 20-220, limits assumed)
# T1 sequence (looked up): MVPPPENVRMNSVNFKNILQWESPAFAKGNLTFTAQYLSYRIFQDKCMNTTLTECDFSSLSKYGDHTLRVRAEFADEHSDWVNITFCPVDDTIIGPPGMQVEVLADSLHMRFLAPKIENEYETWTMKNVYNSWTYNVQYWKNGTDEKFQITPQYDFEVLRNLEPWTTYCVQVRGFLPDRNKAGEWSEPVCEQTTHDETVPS
# T2: IL-10R1-Fc (UniProt Q13651 22-235, limits assumed)
# T2 sequence (looked up): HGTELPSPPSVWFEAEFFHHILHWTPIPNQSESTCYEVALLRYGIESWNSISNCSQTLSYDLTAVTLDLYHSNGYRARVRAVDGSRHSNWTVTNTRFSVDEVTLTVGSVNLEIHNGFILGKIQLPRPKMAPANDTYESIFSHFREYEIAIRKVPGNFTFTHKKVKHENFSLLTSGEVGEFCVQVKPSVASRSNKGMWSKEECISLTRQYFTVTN
# B1: IL-10 Arg24Cys-R4-20 (ligand, human, UniProt P22301 19-178, looked up)
# chain: SPGQGTQSENSCTHFPGNLPNMLCDLRDAFSRVKTFFQMKDQLDNLLLKESLLEDFKGYLGCQALSEMIQFYLEEVMPQAENQDPDIKAHVNSLGENLKTLRLRLRRCHRFLPCENKSKAVEQVKNAFNKLQEKGIYKAMSEFDIFINYIEAYMTMKIRN
# modifications: R4-20 on Cys 24
# notes: mature
# B2: IL-10 Phe15Cys-S48 (ligand, human, UniProt P22301 19-178, looked up)
# chain: B1 chain with F15C, C24R
# modifications: S48 on Cys 15
# notes: mature
# B3: IL-10 Arg107Cys-R4-20 (ligand, human, UniProt P22301 19-178, looked up)
# chain: B1 chain with C24R, R107C
# modifications: R4-20 on Cys 107
# notes: mature
# B4: IL-10 Ile87Cys-R4-6 (ligand, human, UniProt P22301 19-178, looked up)
# chain: B1 chain with C24R, I87C
# modifications: R4-6 on Cys 87
# notes: mature
# B5: IL-10 His90Cys-S48 (ligand, human, UniProt P22301 19-178, looked up)
# chain: B1 chain with C24R, H90C
# modifications: S48 on Cys 90
# notes: mature
# B6: IL-10 Asn97Cys-S48 (ligand, human, UniProt P22301 19-178, looked up)
# chain: B1 chain with C24R, N97C
# modifications: S48 on Cys 97
# notes: mature
# B7: IL-10 Met22Cys-S48 (ligand, human, UniProt P22301 19-178, looked up)
# chain: B1 chain with M22C, C24R
# modifications: S48 on Cys 22
# notes: mature
# B8: IL-10 Lys130Cys-R4-7 (ligand, human, UniProt P22301 19-178, looked up)
# chain: B1 chain with C24R, K130C
# modifications: R4-7 on Cys 130
# notes: mature
# B9: IL-10 Asn18Cys-R4-18 (ligand, human, UniProt P22301 19-178, looked up)
# chain: B1 chain with N18C, C24R
# modifications: R4-18 on Cys 18
# notes: mature
# B10: IL-10 Asn97Cys-R4-18 (ligand, human, UniProt P22301 19-178, looked up)
# chain: B1 chain with C24R, N97C
# modifications: R4-18 on Cys 97
# notes: mature
# B11: IL-10 Val33Cys-R4-7 (ligand, human, UniProt P22301 19-178, looked up)
# chain: B1 chain with C24R, V33C
# modifications: R4-7 on Cys 33
# notes: mature
# B12: IL-10 Lys88Cys-R4-7 (ligand, human, UniProt P22301 19-178, looked up)
# chain: B1 chain with C24R, K88C
# modifications: R4-7 on Cys 88
# notes: mature
# B13: IL-10 Thr35Cys-S48 (ligand, human, UniProt P22301 19-178, looked up)
# chain: B1 chain with C24R, T35C
# modifications: S48 on Cys 35
# notes: mature
# B14: IL-10 Lys34Cys-R4-7 (ligand, human, UniProt P22301 19-178, looked up)
# chain: B1 chain with C24R, K34C
# modifications: R4-7 on Cys 34
# notes: mature
# B15: IL-10 Phe36Cys-S48 (ligand, human, UniProt P22301 19-178, looked up)
# chain: B1 chain with C24R, F36C
# modifications: S48 on Cys 36
# notes: mature
# B16: IL-10 Lys34Cys-S48 (ligand, human, UniProt P22301 19-178, looked up)
# chain: B1 chain with C24R, K34C
# modifications: S48 on Cys 34
# notes: mature; also called IL10-K34C-S48
# B17: IL-10 Lys119Cys-R4-7 (ligand, human, UniProt P22301 19-178, looked up)
# chain: B1 chain with C24R, K119C
# modifications: R4-7 on Cys 119
# notes: mature
# B18: IL-10 Asn21Cys-S48 (ligand, human, UniProt P22301 19-178, looked up)
# chain: B1 chain with N21C, C24R
# modifications: S48 on Cys 21
# notes: mature
# B19: IL-10 Arg104Cys-R4-20 (ligand, human, UniProt P22301 19-178, looked up)
# chain: B1 chain with C24R, R104C
# modifications: R4-20 on Cys 104
# notes: mature
# B20: IL-10 Arg104Cys-S48 (ligand, human, UniProt P22301 19-178, looked up)
# chain: B1 chain with C24R, R104C
# modifications: S48 on Cys 104
# notes: mature
# B21: IL-10 Lys119Cys-S48 (ligand, human, UniProt P22301 19-178, looked up)
# chain: B1 chain with C24R, K119C
# modifications: S48 on Cys 119
# notes: mature
# B22: IL-10 Lys130Cys-S48 (ligand, human, UniProt P22301 19-178, looked up)
# chain: B1 chain with C24R, K130C
# modifications: S48 on Cys 130
# notes: mature
# B23: IL-10 Leu101Cys-R4-6 (ligand, human, UniProt P22301 19-178, looked up)
# chain: B1 chain with C24R, L101C
# modifications: R4-6 on Cys 101
# notes: mature
# B24: IL-10 Arg32Cys-R4-7 (ligand, human, UniProt P22301 19-178, looked up)
# chain: B1 chain with C24R, R32C
# modifications: R4-7 on Cys 32
# notes: mature
# B25: IL-10 Ser31Cys-S48 (ligand, human, UniProt P22301 19-178, looked up)
# chain: B1 chain with C24R, S31C
# modifications: S48 on Cys 31
# notes: mature
# B26: IL-10 Phe36Cys-R4-8 (ligand, human, UniProt P22301 19-178, looked up)
# chain: B1 chain with C24R, F36C
# modifications: R4-8 on Cys 36
# notes: mature
# B27: IL-10 Met22Cys-R4-1 (ligand, human, UniProt P22301 19-178, looked up)
# chain: B1 chain with M22C, C24R
# modifications: R4-1 on Cys 22
# notes: mature
# B28: IL-10 Thr100Cys-S48 (ligand, human, UniProt P22301 19-178, looked up)
# chain: B1 chain with C24R, T100C
# modifications: S48 on Cys 100
# notes: mature
# B29: IL-10 Leu103Cys-R4-6 (ligand, human, UniProt P22301 19-178, looked up)
# chain: B1 chain with C24R, L103C
# modifications: R4-6 on Cys 103
# notes: mature
# B30: IL-10 His90Cys-R4-19 (ligand, human, UniProt P22301 19-178, looked up)
# chain: B1 chain with C24R, H90C
# modifications: R4-19 on Cys 90
# notes: mature
# B31: IL-10 Arg32Cys-S48 (ligand, human, UniProt P22301 19-178, looked up)
# chain: B1 chain with C24R, R32C
# modifications: S48 on Cys 32
# notes: mature
# B32: IL-10 Leu103Cys-S48 (ligand, human, UniProt P22301 19-178, looked up)
# chain: B1 chain with C24R, L103C
# modifications: S48 on Cys 103
# notes: mature
# B33: IL-10 Arg107Cys-S48 (ligand, human, UniProt P22301 19-178, looked up)
# chain: B1 chain with C24R, R107C
# modifications: S48 on Cys 107
# notes: mature
# B34: IL-10 Leu101Cys-S48 (ligand, human, UniProt P22301 19-178, looked up)
# chain: B1 chain with C24R, L101C
# modifications: S48 on Cys 101
# notes: mature
# B35: IL-10 Asn18Cys-S48 (ligand, human, UniProt P22301 19-178, looked up)
# chain: B1 chain with N18C, C24R
# modifications: S48 on Cys 18
# notes: mature
# B36: IL-10 Ile87Cys-S48 (ligand, human, UniProt P22301 19-178, looked up)
# chain: B1 chain with C24R, I87C
# modifications: S48 on Cys 87
# notes: mature
# B37: IL-10 Asn21Cys-R4-18 (ligand, human, UniProt P22301 19-178, looked up)
# chain: B1 chain with N21C, C24R
# modifications: R4-18 on Cys 21
# notes: mature
# B38: IL-10 Lys99Cys-R4-7 (ligand, human, UniProt P22301 19-178, looked up)
# chain: B1 chain with C24R, K99C
# modifications: R4-7 on Cys 99
# notes: mature
# B39: IL-10 Asp25Cys-S48 (ligand, human, UniProt P22301 19-178, looked up)
# chain: B1 chain with C24R, D25C
# modifications: S48 on Cys 25
# notes: mature
# B40: IL-10 Thr100Cys-R4-7 (ligand, human, UniProt P22301 19-178, looked up)
# chain: B1 chain with C24R, T100C
# modifications: R4-7 on Cys 100
# notes: mature
# B41: IL-10 Lys99Cys-S48 (ligand, human, UniProt P22301 19-178, looked up)
# chain: B1 chain with C24R, K99C
# modifications: S48 on Cys 99
# notes: mature
# B42: IL-10 Arg24Cys-S48 (ligand, human, UniProt P22301 19-178, looked up)
# chain: B1 chain
# modifications: S48 on Cys 24
# notes: mature
# B43: IL-10 Ser31Cys-R4-2 (ligand, human, UniProt P22301 19-178, looked up)
# chain: B1 chain with C24R, S31C
# modifications: R4-2 on Cys 31
# notes: mature
# B44: IL-10 Thr35Cys-R4-5 (ligand, human, UniProt P22301 19-178, looked up)
# chain: B1 chain with C24R, T35C
# modifications: R4-5 on Cys 35
# notes: mature
# B45: IL-10 Val33Cys-S48 (ligand, human, UniProt P22301 19-178, looked up)
# chain: B1 chain with C24R, V33C
# modifications: S48 on Cys 33
# notes: mature
# B46: IL-10 Lys88Cys-S48 (ligand, human, UniProt P22301 19-178, looked up)
# chain: B1 chain with C24R, K88C
# modifications: S48 on Cys 88
# notes: mature
# Target: T1, IL-10R2-Fc/His
# Assay: ELISA, IL-10R2-Fc/His coated
Binding recovery (>60%) [%],Decreased fold of binding to ligand after Conjugating with S48 [fold],Binder
98.1,,B1
,3,B2
84,,B3
95.7,,B4
,7,B5
,4,B6
,6,B7
99.7,,B8
99.8,,B9
80.7,,B10
91.4,,B11
99,,B12
,6,B13
97.3,,B14
,3,B15
,5,B16
106,,B17
,6,B18
96.6,,B19
,6,B20
,4,B21
,3,B22
91,,B23

Binding recovery (>60%) [%],Decreased fold of binding to ligand after Conjugating with S48 [fold],Binder
89.6,,B24
,7,B25
79.6,,B26
80,,B27
,8,B28
89.4,,B29
79,,B30
,9,B31
,3,B32
,5,B33
,3,B34
,4,B35
,4,B36
85.3,,B37
117,,B38
,5,B39
90.7,,B40
,3,B41
,9,B42
87.4,,B43
123,,B44
,3,B45
,3,B46

# Target: T2, IL-10R1-Fc
# Assay: ELISA, IL-10R1-Fc coated
Binding recovery (>60%) [%],Decreased fold of binding to ligand after Conjugating with S48 [fold],Binder
90,,B1
99.5,,B3
,8,B5
,5,B6
,5,B7
100,,B8
92.3,,B9
94.5,,B10
,36,B13
99.6,,B14
,50,B16
99,,B17
,7,B18
98.5,,B19
,3,B20
,3,B21
,3,B22
90.4,,B24
,39,B25
96.8,,B27
,4,B28
86.5,,B30
,13,B31
,3,B33
,12,B35
99.7,,B37
,3,B39
99.3,,B40
,33,B42
125,,B43

# Reference: patent publication US20230158141A1 (YAFEI SHANGHAI BIOLOG MEDICINE SCIENCE AND TECHNOLOGY, published 2023)
